Laboratory results: US20130040825A1, “DNA DAMAGE DETECTION ASSAY AND METHOD” (priority 2011, published 2013)

B1: 8-oxo-dA lesion: synthetic template oligonucleotide containing a single 7,8-dihydro-8-oxo-2′-deoxyadenosine (8-oxo-dA) (nucleic acid)
DNA: CCACTCTCCATGCACATAACAGACTTGGCTGTGCNCGGTGCTCAGGAAGCCCAGGTGGAAGCCAT
modifications: 8-oxo-dA lesion, chemistry not fully specified
B2: Abasic sites: 64 base synthetic template oligonucleotide with a single abasic site (dSpacer tetrahydrofuran analog) (nucleic acid)
DNA: CCACTCTCCATGCACATAACAGACTTGGCTCACCTGCACTCAGGAAGCCCAGGTGGAAGCCAT
modifications: abasic tetrahydrofuran site, further chemistry not given here
B3: 8-OxoG lesion: synthetic template oligonucleotide containing a single 7,8-dihydro-8-oxo-2′-deoxyguanosine (8-oxo-dG) (nucleic acid)
DNA: CCACTCACCNTGCACATAACAGACTTGGCTGTCCCAGACTGCAGGAAGCCCAGGTGGAAGCCAT
modifications: 8-oxo-dG lesion, chemistry not fully specified
B4: thymine glycol lesion: synthetic template oligonucleotide containing a single 5R,6S-dihydroxy-5,6-dihydrothymine (thymine glycol) (nucleic acid)
DNA: CCACTCACCGGCACATAACAGACTTGGCTGTCCCAGACTGCAGGAAGCCCAGGTGGAAGCCAT
modifications: thymine glycol lesion, further chemistry not given here

Assays:
[1] = tested on: naked DNA; assay: PADDA detection of cytosine deamination after exposure of naked DNA to serial dilutions of sodium bisulfite; type: biochemical; conditions: serial dilutions (FIG. 6)
[2] = tested on: CAN1 gene; assay: q-PADDA quantification of induced DNA damage after in vitro exposure of cloned CAN1 plasmid DNA; type: biochemical, Saccharomyces cerevisiae
Method: We quantified induced DNA damage after in vitro and/or in vivo exposure to a dose escalation of H2O2 (1 μM to 500 mM) and methyl methanosulfonate (MMS) (1 mM to 1 M). For in vitro assays, a 1,750 bp fragment of the CAN1 gene was amplified by PCR and cloned into the pJET1.2 vector (Fermentas, Glenn Burie, Md.) using standard protocols. Plasmid DNA was sequence verified, extracted using CsCl and dialyzed overnight against 500 ml H2O. Five μg of dialyzed DNA were treated with H2O2 in the presence of 0.3 M sucrose and 100 μM Fe^2+ as described (84), or with MMS in water (85). Treated DNA was recovered by ethanol precipitation. For in vivo induced DNA damage assays, BER− cells in logarithmic phase were treated with varying doses and times of MMS as described (85). For a control, cells were treated with water in place of MMS. Genomic DNA was extracted as described above, except MMS concentration was kept constant during spheroplasting. […] Control samples were processed as treated samples except water was added in place of the specific genotoxic. Experiments were repeated at least in triplicate. For high-throughput damage quantification, the highly purified streptavidin bound extended products were re-suspended in 50 μl TE and amplified by Real-Time PCR using one of 2 Real-Time PCR detection Systems: IQ5 Real-Time PCR detection System or Qx100 digital droplet PCR system.
For the IQ5 Real-Time PCR detection System using Sybr Green, reactions were carried out in an in a 25 μl final volume with PCR buffer (40 mM Tricine-KOH (pH 8.0), 16 mM KCl, 3.5 mM MgCl2, 3.75 μg/ml bovine serum albumin), 1:75,000 dilution SYBR Green I (Invitrogen), 0.8 mM total dNTPs (Fermentas), 0.7 units JUMPSTART Taq polymerase (Sigma), 0.32 μM each oligo, and 1/32 of total extended product pool. Amplification was monitored and analyzed by measuring the intercalation of the fluorescent dye to double-stranded DNA according to the manufacturer's instructions. To quantify damage on each strand of the yeast CAN1 gene, two fragments of different lengths located in the same genomic region were amplified. The long fragment (513 to 628 bases) was used to assess damage quantification. The short fragment (67 to 68 bases), representing undamaged DNA, was used as an internal normalization control. The PCR conditions for the different fragments were optimized to achieve similar amplification efficiencies required to compare different amplicons. All products were amplified under the following conditions: 95° C., 3 min; 40 cycles (95° C., 15 s; 63° C., 40 s). Each sample was assayed in at least three independent experiments, each with at least four wells per sample, from three separate yeast cultures and DNA extractions. […]

[3] = tested on: BER− cells; assay: q-PADDA quantification of in vivo induced DNA damage in BER− cells in logarithmic phase; type: cell-based, Saccharomyces cerevisiae; conditions: BER− yeast cells (FIG. 4A, 4B)
Method: We quantified induced DNA damage after in vitro and/or in vivo exposure to a dose escalation of H2O2 (1 μM to 500 mM) and methyl methanosulfonate (MMS) (1 mM to 1 M). For in vitro assays, a 1,750 bp fragment of the CAN1 gene was amplified by PCR and cloned into the pJET1.2 vector (Fermentas, Glenn Burie, Md.) using standard protocols. Plasmid DNA was sequence verified, extracted using CsCl and dialyzed overnight against 500 ml H2O. Five μg of dialyzed DNA were treated with H2O2 in the presence of 0.3 M sucrose and 100 μM Fe^2+ as described (84), or with MMS in water (85). Treated DNA was recovered by ethanol precipitation. […] For high-throughput damage quantification, the highly purified streptavidin bound extended products were re-suspended in 50 μl TE and amplified by Real-Time PCR using one of 2 Real-Time PCR detection Systems: IQ5 Real-Time PCR detection System or Qx100 digital droplet PCR system.
For the IQ5 Real-Time PCR detection System using Sybr Green, reactions were carried out in an in a 25 μl final volume with PCR buffer (40 mM Tricine-KOH (pH 8.0), 16 mM KCl, 3.5 mM MgCl2, 3.75 μg/ml bovine serum albumin), 1:75,000 dilution SYBR Green I (Invitrogen), 0.8 mM total dNTPs (Fermentas), 0.7 units JUMPSTART Taq polymerase (Sigma), 0.32 μM each oligo, and 1/32 of total extended product pool. […] The long fragment (513 to 628 bases) was used to assess damage quantification. […]

[4] = target: T1, Vent exo− (Thermococcus litoralis, UniProt P30317, D141A/DEL1082-1471/DEL495-1032/E143A); assay: f-PADDA primer extension on synthetic oligonucleotides containing a single engineered lesion; type: biochemical; conditions: for lesion detected in primer extensions (sensitivity of PADDA): engineered lesion in 64 base template, at least 20 independent events per lesion; for Stops with Misincorporation (SMs): replicative arrest with misincorporation opposite the damaged base; for Stops: replicative arrest without misincorporation; for lesion acting as Vent exo− blocking lesion: share of all primer extensions; for Lesion Bypass with Misincorporation (LBM): misincorporation without replicative arrest
T1 construct: Vent exo−, a truncated form of a native DNA polymerase (Vent, NEB); purchased NEB
T1 sequence (P30317 other isoform, or with tags, fused parts or gaps D141A/E143A/DEL495-1032/DEL1082-1471): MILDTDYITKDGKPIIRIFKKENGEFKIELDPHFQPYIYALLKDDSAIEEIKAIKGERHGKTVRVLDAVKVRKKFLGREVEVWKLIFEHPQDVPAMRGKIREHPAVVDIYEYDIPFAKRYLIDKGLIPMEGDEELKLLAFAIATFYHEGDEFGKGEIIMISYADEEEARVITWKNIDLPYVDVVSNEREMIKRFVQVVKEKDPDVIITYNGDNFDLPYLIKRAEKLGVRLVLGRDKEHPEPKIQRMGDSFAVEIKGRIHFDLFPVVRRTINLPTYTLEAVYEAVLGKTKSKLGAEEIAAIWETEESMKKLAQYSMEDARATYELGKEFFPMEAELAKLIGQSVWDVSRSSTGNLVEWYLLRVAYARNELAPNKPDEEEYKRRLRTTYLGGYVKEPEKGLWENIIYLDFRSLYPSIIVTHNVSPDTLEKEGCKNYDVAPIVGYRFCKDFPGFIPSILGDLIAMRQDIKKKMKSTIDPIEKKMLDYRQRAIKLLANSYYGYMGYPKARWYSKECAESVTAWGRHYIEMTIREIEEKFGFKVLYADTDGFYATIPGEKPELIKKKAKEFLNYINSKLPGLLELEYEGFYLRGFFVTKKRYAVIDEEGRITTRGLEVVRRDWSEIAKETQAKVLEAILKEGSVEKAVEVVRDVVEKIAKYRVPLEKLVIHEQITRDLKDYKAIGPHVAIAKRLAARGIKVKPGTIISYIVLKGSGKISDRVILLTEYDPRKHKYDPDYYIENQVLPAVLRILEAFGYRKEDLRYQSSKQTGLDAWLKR
Method: A single non-cycled primer-extension reaction in the region of interest was performed to screen for DNA damage. It will be understood that the presently disclosed and claimed inventive concepts are not limited to these oligonucleotides. For damage detection in synthetic DNA, we prepared a 22.8 μl primer extension reaction containing 1× Thermopol buffer (NEB, Ipswich, Mass.), 0.2 mM each dNTP (Fermentas, Glen Burie, Md.), 20 pmol of a 5-biotin-tagged primer, and 20 pmol of a 64 base template containing either a synthetic abasic or 8-OxoG lesion, along with a control (undamaged oligo). To generate a pool of biotin-tagged extended products (FIG. 1A), the mix was incubated at 94° C. for 3 min, held at 85° C. to add 0.08 U of Vent exo− (NEB), and then incubated at 58° C. for 2 min (annealing), and 75° C. for 2 min (extension). For damage detection in genomic DNA, we used 500 ng of S. cerevisiae genomic DNA, 0.8 U of Vent exo−, and 2 pmol of a 5-biotin-tagged gene specific primer. A sample containing all reagents except Vent exo− was used as a negative control for all experiments. The non-cycled primer-extension contrasts with the multiple-cycle primer-extension reaction of previous assays, and generates a pool of highly specific biotin-tagged extended products (EPs), each of them derived from a single DNA molecule and strand (FIG. 1A). The use of a 5-biotin-tagged sequence specific primer allows for subsequent steps aimed at reducing the background of the technique. Vent exo−, a truncated form of a native DNA polymerase (Vent, NEB), was chosen for this assay instead of the currently used Sequenase (13) or Taq DNA polymerase (14), because of its reported high sensitivity to detect DNA damage (21) and primer-extension efficiency (22-24). To optimize primer-extension performance, Vent exo− units were adjusted to the complexity of the DNA being screened (22).
For the purpose of mapping strand-specific nucleotide damage (f-PADDA), the 3′-end of the highly purified extended products was attached to the 5′-end of a chemically modified adapter-primer using Thermophage single-stranded DNA ligase (Prokaria, Reykjavik, Iceland) [Currently Circligase I from Epicentre, Madison, Wis.]. Thermophage was chosen for this reaction because its efficiency for single-strand ligation is higher than that of T4 RNA ligase (25) used in some PCR-based assays. […] Purified extended-products were first washed with 20 μl of 1× Thermophage ssDNA ligase buffer and then resuspended in 3.7 μl of 1× Thermophage ssDNA ligase buffer. The ligation was performed as recommended by Prokaria except 1.5 μM adapter and 10 U ssDNA ligase in a final 10 μl volume were used under the following conditions: 55° C. for 1 h, 65° C. for 15 min, and 70° C. for 15 min. Then, samples were spun briefly and the supernatant removed as before in the presence of a magnet. The adapter-ligated extended-products were washed with 1 ml of 2× B&W buffer, and then incubated with 1 ml of 0.5 M NaOH for 5 min to completely remove free adapters and non-specifically bound DNA. Finally, the supernatant was discarded and the bound products were washed with 200 μl of 2× B&W buffer. The adapter-linked extended-products pool was then washed with 20 μl of 1× Phusion HF PCR buffer and amplified for 35-cycles using Phusion Hot-Start DNA Polymerase (Finnzymes), an oligonucleotide complementary to the adapter-primer and a nested gene-specific primer according to the manufacturer's instructions. Phusion Hot-Start DNA Polymerase has the highest available accuracy (error rate=4.4×10^−7) and generates blunt-end products. After PCR amplification, the supernatant was collected under a magnetic field for use in cloning (CLONE JET PCR cloning kit, Fermentas) and transformation following standard procedures. This cloning strategy yields 99% of clones positive for a cloned insert. […]

Molecule | lesion detected in primer extensions (sensitivity of PADDA) [4] | Stops with Misincorporation (SMs) [4] | Stops [4] | lesion acting as Vent exo− blocking lesion [4] | further results
O=S([O-])O.[Na+] [sodium bisulfite] | – | – | – | – | DNA change induced in naked DNA [1]: deamination of unmethylated cytosines to uracil
COS(C)(=O)=O [MMS, methyl methanosulfonate] | – | – | – | – | in vitro DNA damage induced by dose escalation ([2]; dose escalation (FIG. 5)): increase in in vitro DNA damage; in vivo DNA damage induced by dose escalation or by increase in exposure time [3]: increase in in vivo DNA damage
OO [H2O2, Hydrogen peroxide] | – | – | – | – | total CAN1 DNA damage compared to the control ([2]; each dose escalation from 1 μM to 500 mM): significant increase in total CAN1 DNA damage; lowest dose giving a significant increase in damage, NTS ([2]; non-transcribed strand of CAN1, p<0.005): 1 µM; lowest dose giving a significant increase in damage, TS ([2]; transcribed strand of CAN1, p<0.005): 10 µM
B1 | 100% | 10% | 90% | 100% | –
B2 | 100% | 50% | 45% | 95% | Lesion Bypass with Misincorporation (LBM) [4]: 5%
B3 | 85% | 15% | 8% | 23% | Bypass by Vent exo− without misincorporation [4]: 15%; Lesion Bypass with Misincorporation (LBM) [4]: 62%
B4 | 67% | – | – | – | –
